# Laboratory results taken from the RNAGym collection of RNA variant scans (doi:10.7554/elife.80360).
# B1: Twister Ribozyme (parent)
# chain: AACACUGCCAAUGCCGGUCCCAAGCCCGGAUAAAAGUGGAGGGGGCGG
# Variants of: B1
# Assay: self-cleavage, relative activity (ratio to wild type); higher = more cleavage; co-transcriptional
row,Variant,self-cleavage
1,AACACUGCCAAUGCCGGUCGCAAGCCCGGAUAAAAGUGGAGGGGGAGG,0.12
2,AACACUGCCAAUGCCGGUCGCAAGCCCGGAUAAAAGUGGAGGGGGUGG,0.119
3,AACACUGCCAAUGCCGGUCACAAGCCCGGAAAAAAGUGGAGGGGGCGG,0.14
4,AACACUGCCAAUGCCGGUCGUAAGCCCGGAUAAAAGUGGAGGGGGCGG,0.115
5,AACACUGCCAAUGCCGGUCACAAGGCCGGAUAAAAGUGGAGGGGGCGG,0.0839
6,AACACUGCCAAUGCCGGUCACAAGUCCGGAUAAAAGUGGAGGGGGCGG,0.112
7,AACACUGCCAAUGCCGGUCACAAGCCCGGAUAAAAGUGGAAGGGGCGG,0.0878
8,AACACUGCCAAUGCCGGUCACAAGCCCGGAUAAAAGUGGAGGGCGCGG,0.146
9,AACACUGCCAAUGCCGGUCACAAGCCCGGAUAUAAGUGGAGGGGGCGG,0.0982
10,AACACUGCCAAUGCCGGUCACAAGCCCGGAUAAAAGUGGAGGGGGCCG,0.108
11,AACACUGCCAAUGCCGGUCACAAGCCCGGAUAAAAGUGGAGGGGGCAG,0.0961
12,AACACUGCCAAUGCCGGUCACAAGCCCGGAUCAAAGUGGAGGGGGCGG,0.111
13,AACACUGCCAAUGCCGGUCACAAGCCCGGAUGAAAGUGGAGGGGGCGG,0.145
14,AACACUGCCAAUGCCGGUCGCAAGCCCGGAUAAAAGUGAAGGGGGCGG,0.106
15,AACACUGCCAAUGCCGGUCGCAAGCCCGGAUAAAAGUGUAGGGGGCGG,0.0983
16,AACACUGCCAAUGCCGGUCGCAAGCCCGGAUAAAAGUGCAGGGGGCGG,0.0945
17,AACACUGCCAAUGCCGGUCACAAGCCCGGAUAAAGGUGGAGGGGGCGG,0.0546
18,AACACUGCCAAUGCCGGUCACAAGCCCGAAUAAAAGUGGAGGGGGCGG,0.138
19,AACACUGCCAAUGCCGGUCGCAAGCCCGGAUAAAACUGGAGGGGGCGG,0.168
20,AACACUGCCAAUGCCGGUCGCAAGCCCGGAUAAAAUUGGAGGGGGCGG,0.0382
21,AACACUGCCAAUGCCGGUCACAAGCCCGGAUAAAAGUGAAGGGGGCGG,0.114
22,AACACUGCCAAUGCCGGUCGCAAGCCCUGAUAAAAGUGGAGGGGGCGG,0.233
23,AACACUGCCAAUGCCGGUCGCAAGCCCGGAUAAAAGUAGAGGGGGCGG,0.0626
24,AACACUGCCAAUGCCGGUCGCAAGCCCGGAUAAAAGUUGAGGGGGCGG,0.0717
25,AACACUGCCAAUGCCGGUCGCAAGCCCGGAUAAAAGUCGAGGGGGCGG,0.108
26,AACACUGCCAAUGCCGGUUCCAAGCCCGGUUAAAAGUGGAGGGGGCGG,0.82
27,AACACUGCCAAUGCCGGUUCCAAGCCCGGCUAAAAGUGGAGGGGGCGG,0.591

row,Variant,self-cleavage
1,AACACUGCCAAUGCCGGUCACCAGCCCGGAUAAAAGUGGAGGGGGCGG,0.126
2,AACACUGCCAAUGCCGGUCACAAGCCCGGAUAAAAGUGGAGGGGGGGG,0.0871
3,AACACUGCCAAUGCCGGUCGCAAGCCCGCAUAAAAGUGGAGGGGGCGG,0.0469
4,AACACUGCCAAUGCCGGUUCCAAGCGCGGAUAAAAGUGGAGGGGGCGG,0.0861
5,AACACUGCCAAUGCCGGUUCCAAGCUCGGAUAAAAGUGGAGGGGGCGG,0.0803
6,AACACUGCCAAUGCCGGUUCCAAGCCCGGAUAAGAGUGGAGGGGGCGG,0.601
7,AACACUGCCAAUGCCGGUUCCAAGCCCGGAUAACAGUGGAGGGGGCGG,0.083
8,AACACUGCCAAUGCCGGUCACAAGCCCGGGUAAAAGUGGAGGGGGCGG,0.114
9,AACACUGCCAAUGCCGGUUCCAAGCCCGGAUAAAAGUGGAAGGGGCGG,0.134
10,AACACUGCCAAUGCCGGUUCCAAGCCCGGAUAAAAGUGGACGGGGCGG,0.104
11,AACACUGCCAAUGCCGGUCGCAAGCCCGGGUAAAAGUGGAGGGGGCGG,0.233
12,AACACUGCCAAUGCCGGUCGCUAGCCCGGAUAAAAGUGGAGGGGGCGG,0.122
13,AACACUGCCAAUGCCGGUCGCCAGCCCGGAUAAAAGUGGAGGGGGCGG,0.147
14,AACACUGCCAAUGCCGGUCACAAGCCCGGAUAAAAGUGGAGGGGGCGG,0.16
15,AACACUGCCAAUGCCGGUCGCAAGCCCGGAUAAAAGUGGAGGGGGCGG,0.169
16,AACACUGCCAAUGCCGGUCACAAGCCCGGAUAAGAGUGGAGGGGGCGG,0.104
17,AACACUGCCAAUGCCGGUCACAAGCCCGGAUAAUAGUGGAGGGGGCGG,0.0698
18,AACACUGCCAAUGCCGGUUCCAAGCCCGGAUAAAAGUGGAGGGGGCAG,0.763
19,AACACUGCCAAUGCCGGUUCCAAGCCCGGAUAAAAGUGGAGGGGGCUG,0.39
20,AACACUGCCAAUGCCGGUCACAUGCCCGGAUAAAAGUGGAGGGGGCGG,0.0802
21,AACACUGCCAAUGCCGGUCACAGGCCCGGAUAAAAGUGGAGGGGGCGG,0.0659
22,AACACUGCCAAUGCCGGUCGCAAGCCUGGAUAAAAGUGGAGGGGGCGG,0.0791
23,AACACUGCCAAUGCCGGUCGCAAGCCGGGAUAAAAGUGGAGGGGGCGG,0.0793
24,AACACUGCCAAUGCCGGUCGCAAGCCAGGAUAAAAGUGGAGGGGGCGG,0.102
25,AACACUGCCAAUGCCGGUUCCAAGCCCGGAUAAAAGUGGAGGGGUCGG,0.563
26,AACACUGCCAAUGCCGGUUCCAAGCCCGCAUAAAAGUGGAGGGGGCGG,0.438
27,AACACUGCCAAUGCCGGUUCCAAGCCCGUAUAAAAGUGGAGGGGGCGG,0.836
